From US8445240B2, “Termite enzymes and uses thereof for in vitro conversion of lignin-containing materials to fermentable products” (University of Florida Research Foundation, Inc., priority 2009, dated 2013)
Entries after “also recorded” stand apart in the source; their conditions may differ. Each block holds one molecule with its values, some of them ahead of it.

Tests used:
RfLac6 = experiment: Recombinant laccase Lac6 inhibition and enhancement, 2,6-DMP oxidation; format: biochemical, Reticulitermes flavipes; details: 1 mM 2,6-DMP, pH 7.5
recombinant RfBGluc-1 = experiment: Inhibition of recombinant RfBGluc-1; format: biochemical, Reticulitermes flavipes; details: 25° C., sodium acetate 0.1M pH 7, 2 mM p-nitrophenyl-B-D-glucopyranoside
Method: Assays were conducted at 25° C. in sodium acetate buffer (0.1M, pH 7) using 2 mM p-nitrophenyl-B-D-glucopyranoside as the substrate.

[1] = system: R. flavipes worker gut esterases; experiment: Gut esterase activity toward naphthyl esters, native PAGE and colorimetric microplate assays; format: biochemical, Reticulitermes flavipes; details: foregut/salivary gland, midgut, hindgut
Method: Dissections, protein preparation, centrifugation protocols, and protein assays: All manipulations were performed on ice. For tissue localization studies, 25 termite worker guts were removed and dissected into the three regions of foregut/salivary gland, midgut and hindgut. Each gut region preparation was homogenized using a Tenbroeck glass homogenizer in potassium phosphate (0.1M, pH 7.6), and then centrifuged for 15 min at 14,000×g and 4° C. The supernatant was saved for assays and the pellet discarded.
Gut esterase activity toward naphthyl esters with varying carbon chain lengths: Activities toward different naphthyl ester substrates were investigated in different regions of the termite gut using native PAGE, as above, the results being shown in FIGS. 4 and 5. […].
. Differences in activity between α-naphthyl butyrate and acetate were not as evident on native PAGE as in activity assays. Thus, the majority/greatest diversity of gut esterase activity in R. flavipes is located in the midgut, and that activity is greatest toward the 3-carbon ester naphthyl propionate. […]

[2] = substrate: OCc1ccccc1O[C@@H]1O[C@H](CO)[C@@H](O)[C@H](O)[C@H]1O; experiment: Activity of recombinant RfBGluc-1 towards natural substrates, endpoint glucose detection assay; format: biochemical, Reticulitermes flavipes; details: other: natural substrates; endpoint at 505 nm, glucose detection reagent; mean ± standard error
Method: (§2) Natural carbohydrate substrates (Table 2) were tested in endpoint assays in which color development was enabled using 439-90901 glucose-mutarose detection reagent (Wako Chemical; Richmond, Va.). Assays were conducted in 125 μL for 5 min at room temperature as described above and stopped with the addition of 125 μL glucose detection reagent. After 1 min, the absorbance was read at 505 nm.

[3] = substrate: OC[C@H]1O[C@@H](O[C@H]2[C@H](O)[C@@H](CO)OC(O)[C@@H]2O)[C@H](O)[C@@H](O)[C@@H]1O; experiment: as above; format: biochemical, Reticulitermes flavipes; details: other: natural substrates; endpoint at 505 nm, glucose detection reagent; mean ± standard error
Method: as §2

[4] = substrate: O=[N+]([O-])c1ccc(O[C@@H]2O[C@H](CO)[C@@H](O[C@@H]3O[C@H](CO)[C@@H](O)[C@H](O)[C@H]3O)[C@H](O)[C@H]2O)cc1; experiment: Activity of recombinant RfBGluc-1 towards synthetic nitrophenol substrates, kinetic microplate assay; format: biochemical, Reticulitermes flavipes; details: other: synthetic NP substrates; read kinetically at 420 nm; mean ± standard error, 3-5 replicates; pH 6.0
Method: (§1) All initial characterization assays took place in 0.1 M sodium acetate buffer (pH 6) using 2 μL of recombinant enzyme preparation (=1.58 μg protein per assay) in a total reaction volume of 250 μL. Synthetic p-nitrophenol substrates (Table 1) were tested in direct kinetic assays using a microplate reader. Reactions were initiated by adding 248 μL assay buffer to 2 μL protein. Assays were read at 420 nm every 20 sec for 5 min to yield mean velocity data in mOD/min. Specific activity was determined with the p-nitrophenol extinction coefficient of 0.6605 mM^−1 cm^−1. All results were averaged from three independent replicates, each conducted in triplicate.

[5] = substrate: O=[N+]([O-])c1ccc(O[C@@H]2O[C@H](CO)[C@@H](O[C@@H]3O[C@H](CO)[C@@H](O[C@@H]4O[C@H](CO)[C@@H](O)[C@H](O)[C@H]4O)[C@H](O)[C@H]3O)[C@H](O)[C@H]2O)cc1; experiment: as above; format: biochemical, Reticulitermes flavipes; details: other: synthetic NP substrates; read kinetically at 420 nm; mean ± standard error, 3-5 replicates; pH 6.0
Method: as §1

[6] = substrate: O=[N+]([O-])c1ccccc1O[C@@H]1O[C@H](CO)[C@@H](O)[C@H](O)[C@H]1O; experiment: as above; format: biochemical, Reticulitermes flavipes; details: other: synthetic NP substrates; read kinetically at 420 nm; mean ± standard error, 3-5 replicates; pH 6.0
Method: as §1

[7] = substrate: O=[N+]([O-])c1ccccc1O[C@@H]1OC[C@@H](O)[C@H](O)[C@H]1O; experiment: as above; format: biochemical, Reticulitermes flavipes; details: other: synthetic NP substrates; read kinetically at 420 nm; mean ± standard error, 3-5 replicates; pH 6.0
Method: as §1

[8] = substrate: O=[N+]([O-])c1ccc(O[C@@H]2O[C@H](CO)[C@@H](O)[C@H](O)[C@H]2O)cc1; experiment: as above; format: biochemical, Reticulitermes flavipes; details: other: synthetic NP substrates; read kinetically at 420 nm; mean ± standard error, 3-5 replicates; pH 6.0
Method: as §1

[9] = substrate: O=[N+]([O-])c1ccc(O[C@@H]2O[C@H](CO)[C@@H](O[C@@H]3O[C@H](CO)[C@@H](O[C@@H]4O[C@H](CO)[C@@H](O[C@@H]5O[C@H](CO)[C@@H](O)[C@H](O)[C@H]5O)[C@H](O)[C@H]4O)[C@H](O)[C@H]3O)[C@H](O)[C@H]2O)cc1; experiment: as above; format: biochemical, Reticulitermes flavipes; details: other: synthetic NP substrates; read kinetically at 420 nm; mean ± standard error, 3-5 replicates; pH 6.0
Method: as §1

[10] = substrate: C[C@H]1O[C@@H](Oc2ccc([N+](=O)[O-])cc2)[C@H](O)[C@@H](O)[C@H]1O; experiment: as above; format: biochemical, Reticulitermes flavipes; details: other: synthetic NP substrates; read kinetically at 420 nm; mean ± standard error, 3-5 replicates; pH 6.0
Method: as §1

[11] = Glucose release from pine sawdust by recombinant enzymes and mixtures; format: biochemical; details: 2% w/v, 18 hrs, 37° C., pH 7
Method: All reactions were performed in 0.1 M sodium acetate buffer containing 10 mM calcium chloride (pH 7). The two feedstock substrates were pine sawdust (=lignin+cellulose+hemicellulose) and beechwood xylan (=lignin+hemicellulose). Feedstocks were tested at 2% w/v (10 mg in 0.5 mL buffer). Reactions were run for 18 hrs at 37° C. with shaking at 220 rpm in vented 1.5 mL plastic tubes.
Protein volumes used per assay were 10 μL of each of the Cell-1, β-glucosidase, and Laccase 6 recombinant protein preparations. These loading volumes provided 8.5, 7.9 and 2.0 μg of each protein, respectively, per reaction. The storage buffer for Cell-1 and β-glucosidase was 0.1 M sodium acetate, 0.15 M sodium chloride, and 0.5 M calcium chloride (pH 5.8). The storage buffer for Laccase 6 was 0.1M boric acid, phosphoric acid, and acetic acid (pH 7.0).
Reactions were stopped after 18 hours by the addition of 10 μL of 0.2 Methylene-diamine tetra-acetic acid and centrifuged for 5 min at 16,000×g. Glucose detection was performed in triplicate on 125 μL aliquots of each reaction supernatant. The entire experiment was replicated three times. Glucose release was measured using the Autokit Glucose reagent kit (Wako Chemical, Richmond, Va.) at a volume of 125 μL per determination. Glucose was quantified based on absorbance at 505 nm relative to glucose standard curves. Standard curves were prepared in eight serial dilutions downward from 0.6 mM in sodium acetate-calcium chloride reaction buffer.

[12] = substrate: COc1cc(/C=C/C(=O)O)cc(OC)c1O; experiment: purified protein, by the assay type; details: other: RfLacA
[13] = substrate: Oc1ccccc1O; experiment: purified protein, by the assay type; details: other: RfLacA
[14] = substrate: COc1cccc(OC)c1O; experiment: purified protein, by the assay type; details: other: RfLacA; substrate concentration providing ½ maximal activity
[15] = substrate concentration providing ½ maximal activity

Method for Cell-1: Thermal stability tests were conducted using 1.5% CMC in 100 mM sodium phosphate at the optimal pH of 7. Temperature-cofactor studies were performed using 1.5% CMC dissolved in 100 mM sodium phosphate (pH 7) alone, plus 4 mM EDTA (final concentration), or plus 10 mM calcium chloride (final concentration). Pre-incubations took place for 0-5 days at 25° C. or 0-60 min at 60° C. or 70° C.; reactions were terminated by the combination of adding stop solution and boiling for 10 min, and then assays were read at 25° C.
Calcium as a cofactor in β-1,4-endoglucanase Cell-1 hydrolytic activity and temperature stability: The effects of calcium on recombinant Cell-1 activity were investigated using calcium chloride as a calcium source and EDTA as a potential calcium chelator.

Molecule: O=C(O)CN(CCN(CC(=O)O)CC(=O)O)CC(=O)O [EDTA, ethylenediaminetetraacetate]
effect on Cell-1 CMC endoglucanase activity (Cell-1; incubations over a 5-day period at about 25° C.): slightly inhibitory
effect on Cell-1 temperature stability (Cell-1; pre-incubation at 60° C. and 70° C., 0-60 min): rapidly reduced temperature stability; also recorded: reduces temperature stability
effect on RfLac6 activity (RfLac6; at concentrations as low as 0.01 mM): completely inhibited

concentration up to which RfLac6 activity is enhanced, inhibitory above (RfLac6): ≤ 10 mM
Molecule: O=C(O)CS [TGA, thioglycolic acid]

Molecule: OC[C@@H]1[C@@H](O[C@@H]2O[C@H](CO)[C@@H](O)[C@H](O)[C@H]2O)[C@H](O)[C@@H](O)c2nccn21 [cellobioimidazole (CBI), cellobioimidazole]
inhibition of recombinant RfBGluc-1 (recombinant RfBGluc-1): concentration-dependent inhibition

gut esterase activity toward the substrate [1]: lowest esterase staining activity
Molecule: CCCCCCCC(=O)Oc1cccc2ccccc12 [α-naphthyl caprylate]

gut esterase activity toward the substrate [1]: significantly greatest activity
Molecule: CCC(=O)Oc1cccc2ccccc12 [α-naphthyl propionate]

Molecule: fluoromethyl cellobiose [fluoromethyl cellobiose (FMCB)]
inhibition of recombinant RfBGluc-1 (recombinant RfBGluc-1): concentration-dependent inhibition

B1: recombinant RfBGluc-1 β-glucosidase (Reticulitermes flavipes) (protein)
chain: ADVDNETLFTFPEDFKLGAATASYQIEGGWNADGKGVNIWDTLTHERSQLVVDKSSGDVADDSYHLYKEDVKLLKNMGAQLYRFSISWARILPEGHDNKVNQAGIEYYNKLIDELLDNGIEPMVTMYHWDLPQTLQDLGGWPNRELAKYSENYARVLFQNFGDRVKLWLTFNEPLTFMDAYASETGMAPSIDTPGIGDYLAAHTVILAHANIYRMYEREFKEEQKGKVGIALNIHWCEPVTNSTKDVEACERYQQFNLGIYAHPIFSVEGDYPSVLKARVDANSVTEGYTTSRLPKFTTEEVDFIRGTHDFLGLNFYTAVTGADGVEGEPPSRYRDMGAITSQDPDWPESASSWLRVVPWGFRKELNWIANEYGNPPIYITENGFSDYGGLNDTDRVLYYTEHLKEMLKAIHIDEVNVVGYTAWSLVDNFEWLRGYTERFGIHEVNFNDPSRPRVPKESAKVLTEIFNTRRIPERFLD
Km [2]: 34300 ± 14750 µM
Vmax [2]: 278 µmol/min/mg
Km [3]: 630 ± 20 µM
Vmax [3]: 218 µmol/min/mg
Km [4]: 1560 ± 40 µM
Vmax [4]: 13.8 µmol/min/mg
Km [5]: 1630 ± 500 µM
Vmax [5]: 22.6 µmol/min/mg
Km [6]: 1580 ± 190 µM
Vmax [6]: 4.2 µmol/min/mg
Km [7]: 7570 ± 1170 µM
Vmax [7]: 8.77 µmol/min/mg
Km [8]: 1660 ± 70 µM
Vmax [8]: 22.9 µmol/min/mg
Km [9]: 590 ± 10 µM
Vmax [9]: 16.6 µmol/min/mg
Km [10]: 900 ± 70 µM
Vmax [10]: 12.6 µmol/min/mg

glucose release from pine sawdust (in words) [11]: No glucose release was detectable
B2: β-glucosidase: recombinant R. flavipes β-glucosidase, amino acid sequence SEQ ID NO.: 6 (protein)
chain: MRLQTVCFVIFVTAVFGADVDNETLFTFPEDFKLGAATASYQIEGGWNADGKGVNIWDKLTHERSQLVVDKSSGDVADDSYHLYKEDVKLLKNMGAQLYRFSISWARILPEGHDNKVNQAGIEYYNKLIDELLDNGIEPMVTMYHWDLPQTLQDLGGWPNRELAKYSENYARVLFQNFGDRVKLWLTFNEPLTFMDAYASETGMAPSIDTPGIGDYLAAHTVILAHANIYRMYEREFKEEQKGKVGIALNIHWCEPVTNSTKDVEACERYQQFNLGIYAHPIFSVEGDYPSVLKARVDANSVTEGYTTSRLPKFTTEEVDFIRGTHDFLGLNFYTAVTGADGVEGEPPSRYRDMGAITSQDPDWPQSASSWLRVVPWGFRKELNWIANEYGNPPIYITENGFSDYGGLNDTDRVLYYTEHLKEMLKANHIDEVNVVGYTTWRPVDNFEWLRGYTERFGIHEVNFNDPSRPRVPKESAKVLTEIFNTRRIPERFLD
modifications: Reticulitermes flavipes; amino acid sequence beta-glucosidase “contig 771”

B3: RfLacA (Reticulitermes flavipes) (protein)
chain: TSVLLNSYLQPNDDIDRNTYLLNAKSNNCARICNGTEAPKICYYQWTIENYVTLSEACDNCPLNVTACYNAQCITADGYERSILSVNRKLPGPSIEVCLRDRVIVDITNNMAGRTTSIHWHGVFQKGSQYMDGVPMVTQCTIHEGDTFRYDFIANNEGTHFWHSHDGLQKLDGVTGNLVVRVPKNFDPNGQLYDFDLPEHKIFISDWLHLSADDHFPGLRATNPGQDANSFLINGRGRTLIGTQSTNTPYAQINVQWGRRYRLRIVGSLCTVCPTQLTIDGHKITVIATDGNSVAPARVDSLIIYSGERYDVVLEATNTEGSYWIHLKGLATCVGSRVYQLGVLQYENTTTNKLHALTPDPGYDGFPQPASYRVLNPENASCSIGSTGLCVTQLANSDPVPRDILTQLPDINYLLQFGFETFDSRSFFKAYDRYFVSPFLELLSSTVNNISFVSPPSPLLSQRGDVPDDILCPTGADGLPQCPGGNSYCTCVHVIKIKLGALVQIILSDQSPKSDLNHPFHIHGHAFYVLGMGQYAAGQTAQDLLNSLKSNVSSVSPAPVLKDTVAVPSGGYAIIKFRPKNPGYWFLHCHFLYHVATGMSVVLQVGETSDYPPTPDGFPKCGSFTPPVNTN
Vmax [12]: 0.247 µM/min
Km [12, 15]: 5022 µM
Vmax [13]: 15.4 µM/min
Km [13, 15]: 17527 µM
Km [14]: 34888 µM
Vmax [14]: 0.26 µM/min
